Target: NGF-specific-receptor-like molecule (NSR) from C 1300 neuroblastoma cells (mouse (endogenous in C 1300 NB cells))
Assay: radioligand binding

Substance: nerve growth factor (NGF), mouse salivary glands (from UniProt P01139 122-241) (ligand)
- Ka: 1e+07 M⁻¹

From publication PMC2139591
